This data set has as its target von Willebrand factor (VWF) (Homo sapiens) (UniProt P04275). The data set can be described thus: filter. The note with it: 2'-F pyrimidines; pool after 4 rounds convergent SELEX.

As for “GGGAGGACGAUGCGGNNNNNNNNNNNNNNNNNNNNNNNNNNNNNNNNNNNNNNNNCAGACGACUCGCUGAGGAUCC [VWF convergent SELEX round 4 pool (R9)]”, the Kd (in general, the concentration at which binding is half-saturated) is 4.5 nM.

The values above are taken from patent US20120264815.
